The values that follow are results of earlier work, collected in paper PMC8036930.

In general, Kd refers to the concentration at which binding is half-saturated.

The series has as its target albumin (Rattus norvegicus) (UniProt P02770).
UniProt P02770, sequence (P02770 25-608): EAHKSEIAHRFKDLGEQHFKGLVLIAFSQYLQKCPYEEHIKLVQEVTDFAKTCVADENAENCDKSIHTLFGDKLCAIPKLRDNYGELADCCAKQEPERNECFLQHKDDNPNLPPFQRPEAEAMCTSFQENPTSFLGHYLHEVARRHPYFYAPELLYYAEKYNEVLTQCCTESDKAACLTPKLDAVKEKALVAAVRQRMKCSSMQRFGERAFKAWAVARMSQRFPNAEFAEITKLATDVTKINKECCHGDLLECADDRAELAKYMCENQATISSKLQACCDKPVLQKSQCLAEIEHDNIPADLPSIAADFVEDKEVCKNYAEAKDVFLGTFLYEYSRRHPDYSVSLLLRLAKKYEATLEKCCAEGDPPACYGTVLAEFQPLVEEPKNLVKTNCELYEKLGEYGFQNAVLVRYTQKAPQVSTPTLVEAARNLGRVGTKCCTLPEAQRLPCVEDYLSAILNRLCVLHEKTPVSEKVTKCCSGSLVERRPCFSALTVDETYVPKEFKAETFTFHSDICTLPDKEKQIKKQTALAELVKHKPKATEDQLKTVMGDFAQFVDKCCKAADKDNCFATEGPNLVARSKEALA

cubilin (from UniProt O70244): the Kd is 630 nM.
